For assay [1], the target named is growth hormone secretagogue receptor (GHS-R1a) (UniProt Q92847).
Assay [2] concerns the target ghrelin O-acyltransferase (GOAT) with a C-terminal 3xFlag tag (mouse) (UniProt P0C7A3).

The results in this text go back to article PMC3763810.

Sequence of UniProt Q92847 (Q92847 whole entry): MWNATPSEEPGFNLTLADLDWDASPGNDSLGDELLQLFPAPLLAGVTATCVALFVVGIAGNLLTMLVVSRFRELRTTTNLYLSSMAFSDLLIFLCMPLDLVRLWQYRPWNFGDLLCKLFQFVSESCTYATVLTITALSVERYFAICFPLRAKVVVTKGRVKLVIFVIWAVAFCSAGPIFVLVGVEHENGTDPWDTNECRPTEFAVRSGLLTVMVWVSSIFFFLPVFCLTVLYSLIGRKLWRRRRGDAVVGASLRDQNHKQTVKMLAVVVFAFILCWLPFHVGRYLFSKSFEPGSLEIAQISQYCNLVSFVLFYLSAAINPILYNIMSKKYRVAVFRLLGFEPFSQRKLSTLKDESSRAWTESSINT
Sequence of UniProt P0C7A3 (P0C7A3 whole entry): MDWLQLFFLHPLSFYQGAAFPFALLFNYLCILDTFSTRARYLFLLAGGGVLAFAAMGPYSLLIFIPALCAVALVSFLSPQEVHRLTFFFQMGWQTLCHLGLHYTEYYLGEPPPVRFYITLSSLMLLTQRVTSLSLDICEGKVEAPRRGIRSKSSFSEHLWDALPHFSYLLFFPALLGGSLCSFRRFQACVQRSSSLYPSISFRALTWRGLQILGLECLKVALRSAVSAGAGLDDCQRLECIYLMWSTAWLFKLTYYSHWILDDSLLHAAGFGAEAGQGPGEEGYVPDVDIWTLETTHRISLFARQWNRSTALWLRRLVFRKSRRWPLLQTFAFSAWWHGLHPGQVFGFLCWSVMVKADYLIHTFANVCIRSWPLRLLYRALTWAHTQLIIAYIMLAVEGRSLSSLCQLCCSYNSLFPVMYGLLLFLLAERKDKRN

Des-acyl ghrelin (peptide) displayed an EC50 in the GHS-R1a assay (stably transfected HEK-293T-GHS-R1a cells) in assay [1] above 10000 nM.
For the substance “Amide ghrelin (Ser3 Dap-Octanoyl-Amide) (peptide)”, the EC50 in the GHS-R1a assay (stably transfected HEK-293T-GHS-R1a cells) in assay [1] was found to be 19 nM.
On the same count and under the same terms, the result for GO-Tat (peptide) reads 23 nM; that for Ghrelin28-Oct-CoA (peptide), 270 nM.
GO-CoA-Tat (peptide) came in with an inhibition of ghrelin acylation in cells, compounds used at 6 μM in assay [2] of 75%. Also, in assay [1], the EC50 in the GHS-R1a assay (stably transfected HEK-293T-GHS-R1a cells) is above 10000 nM.
Acyl ghrelin (peptide) yielded an EC50 in the GHS-R1a assay (stably transfected HEK-293T-GHS-R1a cells) in assay [1] of 18 nM.
